The data set is described as follows: yeast display, Sf9 membrane polyspecificity reagent, FACS + sequencing; frameworks hold sequencing errors. Summed up:
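Polyreactivity labels are assigned by the sorting gate from which each nanobody was recovered. The gates were low and high (top ~1%), set on anti-HA fluorescence for expression and streptavidin fluorescence for reagent binding. Before sorting, galactose-induced (36–48 hours) yeast display cells were stained for 1 hour at 4 °C with 10% biotinylated, detergent-solubilized Sf9 membrane reagent.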
Take “QVQLVESGGGLVQAGGSLRLSCAASGRTFGYYALGWYRQAPGKERELVAAISSNTDSTYYADSVKGRFTISRDNEKNTVYLQMNSLKPEDTAVYYCAAEAYSYYPGTYEDDYWGQGTQVTVSS”: the “polyreactivity (PSR sort gate)” value is listed as “low polyreactivity”.

Take “QVQLVESGGGLVQAGGSLRLSCAASGFIFWKYAKGWYRQAPGKERELVAAISTTGGSTYYADSVKGRFTNSRDNAKNTVYLQMNSLKPEDTAVYYCAAQVGRGYEVYPVYKYGYWGQGTQVTVSS”: the “polyreactivity (PSR sort gate)” value is given as “high polyreactivity”.

As to “PVQLVESGGGVVQAGGSLRLSCAASGSIFDENAKGWNRQAPGKERELVAAISSGGSTNYADSVKGRFTITRDNAKNTVYLQMNSLKPEDTAVYYCNNKSRRQYDYWGQGTQVTVSS”, the “polyreactivity (PSR sort gate)” value is on record as “low polyreactivity”.

As to “QVQLVESGGGLVQAGGSLRLSCAASGSIFTSYAMGWYRQAPGKERELVAAISRSGARTYYADSVKGRFTISRDNAKNTVYLLMNCLKPEDTAVYYCAAVHWRTTGGYDYWGQGTQVTVSS”, the “polyreactivity (PSR sort gate)” value is listed as “high polyreactivity”.

On to “QVQLVESGGGLVQAGGSLRLSCAASGRIFWYNGKGWYRQAPGKERELVAAISYSGGSTNYADSVKGRFTISRDNAKNTVYLQMNSLKPEATAVYYCAAPVPTYHTAWRFFRPDYGYWGQGTQVTVSS”, for which the “polyreactivity (PSR sort gate)” value is “high polyreactivity”.

Take “QVQLVESGGGLDQAGGSLRLSCAASGLTFWYYAMGWYRQAPGKERELVVAISWSGGRTSYADSVKGRFTISRDNAKNTVYLQMNSLKPEDTAVYYCAADKDFRTGEYEYDYWGQGTQVTVSS”: the “polyreactivity (PSR sort gate)” value is reported as “high polyreactivity”.

For “QVQLVESGGGLVQAGGSLRLSSAASGRILQFNAMGWYRQAPGKDRELVAAITSGGSTNYADSVKGRFTISRDNAKNTVYLQMNSLKPEVTAVYYCAAQSLLWQRRLRGYYYWGQGTQVTVSS”, the “polyreactivity (PSR sort gate)” value is “high polyreactivity”.

As for “QVQLVESGGGLVQAGGSLRLSCAASGSIFPPYTMGWFRQAPGKELELVATISSTGITNYADSVKGRFTNSRDNAKNTVYLQMNSLKQEDTAVYYCAAGLWYSFDYWGQGTQVTVSS”, the “polyreactivity (PSR sort gate)” value is “high polyreactivity”.

As for “QVQLVESGGGLVQAGGSLRLSCAASGSIFGPYAMGWYRQAPGKERELVAAISKGGGSTYYADSVKGRFTISRDNAKNTVYLQMNSLKPDDTAVYYCAADQDKPYDHWGQGTQVTVSS”, the “polyreactivity (PSR sort gate)” value is reported as “low polyreactivity”.

As for “QVQLVESGGGLVQAGGSLRLSCAASGFIFLGYGMGWYRQAPGKEREFVAGISWSGGSTYYADSVKGRFTISRDNAKNTVYLQMNSLKPEDTAVYYCNAVVFWGGGDYYWGQGTQVTVSS”, the “polyreactivity (PSR sort gate)” value is on record as “low polyreactivity”.

Regarding “QVQLVESGGGLVQAGGSLRLSCAASGGIFRNYAMGWYRQAPGKERELVARISSAGSTNYADSVKGRFTISRDNAKNTVYLQMNSLKPEDTAVYSCAAYPYVGYVSFSAYDYWGQGTQVTVSS”, the “polyreactivity (PSR sort gate)” value is recorded as “low polyreactivity”.

Turning to “QVQLLESGGGLVQAGGSLRLSCAASGRTLVGYAMGWYRQAPGTERELVAAITGSGGRTYYADSVKGRFTISRDNAKNTVYLQMNSLKPEDTAVYYCNKVYRVSSGAYLYDYWGQGTQVTVSS”, the “polyreactivity (PSR sort gate)” value is “high polyreactivity”.

With “QVQLVDSGGGLVQAGGSHRLSCAASGSIFPRYAMGWYRQAPGKERELVAAITRSGGSTYADSVKGRFTISRDNAKNTVYLQMNSLKPEDTAVYYCNGKVYPWGYYTSWRTVSPYDYWGQGTQVTVSS”, the “polyreactivity (PSR sort gate)” value is recorded as “high polyreactivity”.

Regarding “QVQLVESGGGLVQAGGSLRLSCAASGRIFVGYAMGWYRQAPGKERELVAAINRSGSSTYYADSVKGRFTISRDNAKNTVYLQMNSLKPEDTAVYYCNAARRQGNRYTYDYWGQGTQVTVSS”, the “polyreactivity (PSR sort gate)” value was “high polyreactivity”.

On to “QVQLVESGGGLVQAGGSLRLSCAASGRTFRYYAMGWYRQAPGKERELVAAITSGGSTYYADSVKGRFTISRDNAKNTVYLQMNSLKPEDTAVYYCAAVPAGLWATYPQFRYGYWGQGTQVTVSS”, for which the “polyreactivity (PSR sort gate)” value is on record as “high polyreactivity”.

On to “QEQLQESGGGLVQAGGSLRLSCAASGNITLDTAMGWSRQAPRKEREFVASINDGGITNYADSVKGRFTICRDNAKNSVYLQMNSLKPEDTAVFYCAARWIWRGYDYWGQGTQVTVSS”, for which the “polyreactivity (PSR sort gate)” value was “high polyreactivity”.

Regarding “QVQLVESGGGLVQAGGSLRLSCAASGSTFRTNTMGWYRQAPGKERELVADISWSGGSTYYADSVKGRFTISRDNAKNTVYLQMNSLKPEDTAVYYCAKDGAYWTYFSWYDYWGQGTQVTVSS”, the “polyreactivity (PSR sort gate)” value is listed as “low polyreactivity”.

Turning to “QVQLVESGGGLVQAGGSLRLSCAASGSTLWYNAMGWYRQAPGKERELVASITSDGGSSTYADSVKGRFTISRDNAKNTVYLQMNSQKPEDTAVYYCAADWPIVQYDYWGQGTQVTVSS”, the “polyreactivity (PSR sort gate)” value is listed as “low polyreactivity”.

Regarding “QVQLVESGGGLVQAGGSLRLSCAASGFIFDDNAMGWYRQAPGKERELVAAITSGGGSTYYADSVKGRFTISRDNAKNTVYLQMNSLIPEDTAVYYCNAVPSQHDEFDYWGQGTHVTVSS”, the “polyreactivity (PSR sort gate)” value is on record as “low polyreactivity”.

Take “QVQLVESGGGLVQAGGSLRLSCAASGIIFSPYAMGLYRQAPGKERELVAAISYSGGSTYYADSVKGRFTISRDNAKNTVYLQMNSLKPEDTAVYYCAVVYSYYLAVLGYCDYDYWGQGTQVTVSS”: the “polyreactivity (PSR sort gate)” value was “low polyreactivity”.

In the case of “QVQLVESGGGLVQAGGSLRLSCAASGSIFRGYAMGWYRQAPGKEREFVASITWSAGRTRYADSVKGRFTISRDNAKNTVYLQMNSLKPEDTAVYYCAADHGSYWPRYDYWGQGTQVTVSS”, the “polyreactivity (PSR sort gate)” value is reported as “high polyreactivity”.

For the sequence “QVQLVESGGGLVQAGGSLRLTCAASGRILRINTMGWYRQAPGKEMELVAAISLSGGTTYYAHSVKGRFTISRDNAKNTVYLQMNSVKPEDTAVYYCYKAIWYAEYDYWGQGTQVTVSS”, the “polyreactivity (PSR sort gate)” value is “low polyreactivity”.

As to “QVQLVESGGGLVQAGASLSLSCAASGRTFGGNAMGWYRQAPGKEREFVAAISRSGTSTYYADSVKGRFTISRDNAKNTVYFQMNSLKPEATAVYYCAALNYLKFAHKYDYWGQGTQVTVSS”, the “polyreactivity (PSR sort gate)” value is listed as “low polyreactivity”.

As for “QVQLVESGGGLVQAGGSLRLSCAASGRIFSYYTMGWYRQAPGKERELVAAITGSGGTTYYADSVKGRFTISRDNAKNTVYLQMNSLKPEDTAVYYCAARGYYRWAPYADWRFNYWGQGTQVTVSS”, the “polyreactivity (PSR sort gate)” value is listed as “high polyreactivity”.

Turning to “QEQHVESAGGLVQAGGSLRLSCAASASIIYKYAMGWYRQAPGKERELVAAINSGGRTYYADSVKGRFTISRDNAKNTVYLQMNSLKPEDTAVYYCNAGTYYPGRYDYWGQGTQVTVSS”, the “polyreactivity (PSR sort gate)” value is on record as “high polyreactivity”.

In the case of “QVQLVESGGGLVQAGGSLRLSCASSGSILYVYAMGWYRQAPGKERELVAAISTSGVSTYYADSVKGRFTISRDNAKNTVYLQMNSLKPEDTAVYYCAATVSRGFYSWWYDYWGQGTQVTVSS”, the “polyreactivity (PSR sort gate)” value is listed as “low polyreactivity”.

As to “QEQLVETVVGLVQARGSLRLRSAASGITFRKYAMRWYRQAPGKERDFVAAITRGGRTYYADSVKGRFTISRENAKNTVYLQMNSLKPEDTAVYYCAACTVVYAGSTYLQPFDYWGQGTQVTVSS”, the “polyreactivity (PSR sort gate)” value is “high polyreactivity”.

Turning to “QVQLVESGGGLVQAGGSHRLSCAASGSTFRVYAMGWYRQAPGKERELVATISWGGGRTYYADSVKGRFTISRDNAKNTVYLQMNSLKPEDTAVYYCAADQRWTTDQPTAGDYWGQGTQVTVSS”, the “polyreactivity (PSR sort gate)” value is “low polyreactivity”.

“QVQLVESGGGLVQAGGSLRLSCAASGSIFSANAMGWYRQAPGKERELVAAINSGGGTYYADSVKGRFTISRDNAKNTVFLQMNSLKPEDTAVYYCATDAVYIKGKYYTHEYWGQGTQVTVSS”: the “polyreactivity (PSR sort gate)” value was “high polyreactivity”.

Regarding “QVQLVESGGGLVQAGGSLRLSCAASGYTFRSNTMGWYRQAPGKERELVAAISGRGSSTYYADSVKGRFTISRDNAKNTVYLQMNSLKPEDTAVYYCAAQSKYYQYYSWGQGNQVTVSS”, the “polyreactivity (PSR sort gate)” value is on record as “high polyreactivity”.

Source of the values: the nanobody polyreactivity screen of Harvey et al. (2022).
